Measured values from patent US7326418B2, “Identification of novel factors that block programmed cell death or apoptosis by targeting JNK” (University of Chicago, priority 2001, dated 2008).
“Also recorded” adds a separate entry of the source.

Biological target: T1, JNKK2/MKK7 (Homo sapiens, UniProt O14733, Q133P/Q94H)
T1 construct: expressed in transfected cells; host or cells: HEK-293, TNFα-treated or untreated; anti-FLAG immunoprecipitate
T1 sequence (O14733 1-401 Q94H/Q133P limits assumed): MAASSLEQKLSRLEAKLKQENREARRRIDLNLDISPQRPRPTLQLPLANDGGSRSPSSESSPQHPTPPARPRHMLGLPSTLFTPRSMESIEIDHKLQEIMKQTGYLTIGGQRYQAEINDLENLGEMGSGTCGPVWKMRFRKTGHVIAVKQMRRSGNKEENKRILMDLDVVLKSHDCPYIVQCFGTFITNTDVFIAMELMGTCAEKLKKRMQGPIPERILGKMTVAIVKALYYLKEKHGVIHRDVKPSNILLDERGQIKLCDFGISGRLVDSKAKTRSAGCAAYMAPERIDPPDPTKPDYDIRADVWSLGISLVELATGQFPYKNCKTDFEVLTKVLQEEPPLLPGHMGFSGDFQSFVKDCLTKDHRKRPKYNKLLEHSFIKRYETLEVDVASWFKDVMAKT
Experiment: Kinase assay of immunoprecipitated FLAG-JNKK2/MKK7 (GST-JNK1 substrate) pre-incubated with recombinant Gadd45β proteins or peptides
Format: biochemical
Settings: for inhibition of JNKK2/MKK7 activity (GST-JNK1 phosphorylation): FLAG-JNKK2 from 293 cells, 10 min pre-incubation with increasing concentrations of recombinant protein
Experimental: Next, the functional consequences, in vitro, of the physical interactions of Gadd45β with kinases in the JNK pathway were assessed. Murine and human, full-length Gadd45J3 proteins were purified from E. coli as GST-Gadd45β and His6-tagged Gadd45β (His6 disclosed as SEQ ID NO: 46), respectively, according to standard procedures. Prior to employing these proteins in in vitro assays, purity of all recombinant polypeptides was assured by >98%, by performing Coomassie blue staining of SDS polyacrylamide gels. Then, the ability of these proteins, as well as of control GST and His6-EF3 (His6 disclosed as SEQ ID NO: 46)proteins, to inhibit kinases in the JNK pathways was monitored in vitro. FLAG-tagged JNKK2, JNKK1, MKK3, and ASK1 were immunoprecipitated from transiently transfected 293 cells using anti-FLAG antibodies and pre-incubated for 10 minutes with increasing concentrations of recombinant proteins, prior to the addition of specific kinase substrates (i.e. GST-JNK1 with JNKK1 and JNKK2; GST-p38[…] with MKK3; GST-JNNK1 or GST-JNKK2 with ASK1). […] These findings indicate that, upon binding to Gadd45β, JNKK2 is effectively inactivated.
A question was whether Gadd45β inhibited active MKK7, in vitro. FLAG-MKK7 was immunoprecipitated from TNFα-treated or untreated 293 cells, and kinase assays were performed in the presence of purified His6-Gadd45β (His6 disclosed as SEQ ID NO: 46), GST-Gadd45β, or control proteins (FIG. 28d; see also FIG. 28g). […] Consistent with the in vivo findings (FIG. 27), the inhibitory activity of Gadd45β was specific. […] Indeed, the effects of Gadd45β on MKK7 phosphorylation by TNFα may be due inhibition of the MKK7 ability to auto-phoshorylate and/or to serve as substrate for upstream kinases. Altogether, the findings identify MKK7 as a target of Gadd45β, and of NF-[…]B, in the JNK cascade. Of interest, MKK7 is a selective activator of JNK, and its ablation abolishes JNK activation by TNFα. Thus, blockade of MKK7 is sufficient on its own to explain the effects of Gadd45β on JNK signaling—i.e. its specific and near-complete suppression of this signaling.
Active MKK7 was immunoprecipitated from TNFα-activated 293 cells and MKK7 kinase assays were performed using GST-JNK1 substrates and pure recombinant Gadd45β polypeptides (FIG. 37B; a schematic diagram representing the Gadd45βpolypeptides used is shown in FIG. 37A). […] MKK7 kinase assays were performed as in FIG. 37B, except that pure synthetic Gadd45, peptides (whose sequences are shown in FIG. 37C) were used instead of pure recombinant Gadd45β proteins. The amino acid region between amino acids 58 and 77 of Gadd45βis used for the Gadd45β-mediated inhibition of MKK7. […]

B1: Gadd45β: purified recombinant His6-tagged Gadd45β protein; also used generically for the recombinant Gadd45β proteins (protein, UniProt O75293 1-160, looked up)
Growth arrest and DNA …: MTLEELVACDNAAQKMQTVTAAVEELLVAAQRQDRLTVGVYESAKLMNVDPDSVVLCLLAIDEEEEDDIALQIHFTLIQSFCCDNDINIVRVSGMQRLAQLLGEPAETQGTTEARDLHCLLVTNPHTDAWKSHGLVEVASYCEESRGNNQWVPYISLQER
modifications: His6 tag
notes: purified recombinant His6-tagged Gadd45β protein; also used generically for the recombinant Gadd45β proteins
**Q.** B1 was tested. Which JNKK2 auto-phosphorylation (in vitro) did it give?
**A.** inhibited

B2: His6-Gadd45β: human full-length Gadd45β purified from E. coli as His6-tagged protein (protein, UniProt O75293 1-160, looked up)
chain: MTLEELVACDNAAQKMQTVTAAVEELLVAAQRQDRLTVGVYESAKLMNVDPDSVVLCLLAIDEEEEDDIALQIHFTLIQSFCCDNDINIVRVSGMQRLAQLLGEPAETQGTTEARDLHCLLVTNPHTDAWKSHGLVEVASYCEESRGNNQWVPYISLQER
modifications: full-length His6 tag
notes: human full-length Gadd45β purified from E. coli as His6-tagged protein
**Q.** For B2, which “inhibition of JNKK2/MKK7 activity (GST-JNK1 phosphorylation)” value is on record?
**A.** blocked GST-JNK1 phosphorylation by MKK7, in a dose-dependent manner; also recorded: effectively suppressed

B3: GST-Gadd45β: full-length murine Gadd45β directly fused to GST, purified from E. coli (protein)
chain: MTLEELVASDNAVQKMQAVTAAVEQLLVAAQRQDRLTVGVYEAAKLMNVDPDSVVLCLLAIDEEEEDDIALQIHFTLIQSFCCDNDIDIVRVSGMQRLAQLLGEPAETLGTTEARDLHCLLVTNCHTDSWKSQGLVEVASYCEESRGNNQWVPYISLEER
modifications: left off: a dimerising Fc or GST
notes: full-length murine Gadd45β directly fused to GST, purified from E. coli
**Q.** How did the “inhibition of JNKK2/MKK7 activity (GST-JNK1 phosphorylation)” value turn out when B3 was run?
**A.** blocked GST-JNK1 phosphorylation by MKK7, in a dose-dependent manner; also recorded: effectively suppressed
